Measurements from article PMC9071432.

Biological target: sg-Tu-Ts_dCC (Escherichia coli) (UniProt P0A6P1+P0CE48)
Experiment: EMSA
Settings: 10 mM Mg2+; printed >>30; none (in vitro transcript); EMSA: 50 mM Tris-Cl pH 7.4, 10 mM MgCl2, 50 mM NaCl, 10 mM b-ME, 10% glycerol, 37C 10 min, gel at ~25C; pull-down: Tu-GTP preincubated in 50 mM Tris-Cl pH 7.0 …

UniProt P0A6P1, sequence (P0A6P1 whole entry, chain 1 of 2): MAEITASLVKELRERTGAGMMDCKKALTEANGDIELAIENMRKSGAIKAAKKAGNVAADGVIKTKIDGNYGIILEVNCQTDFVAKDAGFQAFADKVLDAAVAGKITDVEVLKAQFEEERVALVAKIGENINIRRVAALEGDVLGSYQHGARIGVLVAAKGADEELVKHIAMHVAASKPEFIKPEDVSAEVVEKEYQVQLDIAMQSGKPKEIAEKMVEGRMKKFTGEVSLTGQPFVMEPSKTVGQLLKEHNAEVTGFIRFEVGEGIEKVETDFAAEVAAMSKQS
UniProt P0A6P1, sequence (P0CE48 whole entry, chain 2 of 2): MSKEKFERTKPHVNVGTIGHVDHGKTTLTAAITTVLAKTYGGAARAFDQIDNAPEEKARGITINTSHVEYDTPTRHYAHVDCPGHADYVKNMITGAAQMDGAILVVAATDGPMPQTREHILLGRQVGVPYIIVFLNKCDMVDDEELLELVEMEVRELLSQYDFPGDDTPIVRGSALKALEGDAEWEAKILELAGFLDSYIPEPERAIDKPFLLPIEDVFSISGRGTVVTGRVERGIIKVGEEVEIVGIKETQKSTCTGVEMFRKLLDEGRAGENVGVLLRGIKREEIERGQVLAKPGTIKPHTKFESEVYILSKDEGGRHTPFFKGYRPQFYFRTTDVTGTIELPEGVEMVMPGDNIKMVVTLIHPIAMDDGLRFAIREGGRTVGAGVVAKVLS

Question: With “UGGGGUAUCGCCAAGCGGUAAGGCACCGGAUUCUGAUUCCGGCAUUCCGAGGUUCGAAUCCUCGUACCCCAGCCA [tRNAGln transcript (U1-A72, wt), uncharged]” as the sequence, how does the Kd read?
Answer: > 30 µM
